These results are taken from patent US20220008545A1 (Bicycle, published 2022).

The chains are these.
T1: fibroblast activation protein α (FAPα) (UniProt Q12884 26-760, limits assumed)
T1 sequence (looked up): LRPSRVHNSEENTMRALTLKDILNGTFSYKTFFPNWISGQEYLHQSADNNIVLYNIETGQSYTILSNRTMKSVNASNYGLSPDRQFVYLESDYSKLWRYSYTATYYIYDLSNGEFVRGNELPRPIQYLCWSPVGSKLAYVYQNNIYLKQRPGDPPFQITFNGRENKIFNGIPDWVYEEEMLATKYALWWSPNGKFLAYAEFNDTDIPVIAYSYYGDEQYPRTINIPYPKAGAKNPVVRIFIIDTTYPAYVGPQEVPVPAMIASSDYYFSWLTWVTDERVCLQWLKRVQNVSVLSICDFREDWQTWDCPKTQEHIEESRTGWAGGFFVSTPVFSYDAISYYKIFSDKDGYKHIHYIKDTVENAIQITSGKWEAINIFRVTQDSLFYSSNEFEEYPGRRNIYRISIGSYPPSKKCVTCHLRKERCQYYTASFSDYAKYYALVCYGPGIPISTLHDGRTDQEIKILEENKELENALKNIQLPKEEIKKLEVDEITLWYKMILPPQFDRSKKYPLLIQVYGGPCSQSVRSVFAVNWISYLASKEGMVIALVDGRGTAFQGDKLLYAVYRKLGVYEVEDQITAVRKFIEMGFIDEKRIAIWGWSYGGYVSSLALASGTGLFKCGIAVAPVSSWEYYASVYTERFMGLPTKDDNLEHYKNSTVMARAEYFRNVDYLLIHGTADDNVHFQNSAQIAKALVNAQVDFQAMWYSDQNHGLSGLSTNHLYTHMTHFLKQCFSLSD

B1: A-(SEQ ID NO: 3)-A (peptide)
peptide: ACPPTEYDCLIFFSECA
modifications: linker 2-9-16 via TBMB
notes: all L-amino acids; also called CiPPTEYDCiiLIFFSECiii with N- and C-terminal Ala
B2: A-(SEQ ID NO: 1)-A (peptide)
peptide: ACHSDYLICPYGDFFCA
modifications: linker 2-9-16 via TBMB
notes: all L-amino acids; also called CiHSDYLICiiPYGDFFCiii with N- and C-terminal Ala

Starred links: 1 amine or outer side, 2 acyl side, 3 side chain; linkers in the order of their positions; H or OH if unused. Positions of bridges follow the written chain, without caps; N, C: chain ends. No end group written: not given here. TBMB = c1c(C[*:1])cc(C[*:3])cc1C[*:2]

One experiment deals with T1, fibroblast activation protein α (FAPα). In words: fluorescence polarization FAPα binding assay. Here is the method: FAPα binding was measured using the fluorescence polarization assay methodology described in Yanagisawa et al (1997) J Biol Chem 272(13), 8539-8545. FAPα enzyme inhibition was measured using the assay methodology described in Poplawski et al (2013) J Med Chem 56(9), 3467-3477.
In the case of B1, the Ki stood at 578 nM.
Same read-out and setting: to ACTDCDTDSLIYCA (linker 2-5-13 via TBMB, all L-amino acids) [A-(SEQ ID NO: 2)-A] belongs 4520 nM; to ACDDCLISMRDACA (linker 2-5-13 via TBMB, all L-amino acids) [A-(SEQ ID NO: 4)-A], 1720 nM.
Still for that read-out and setting: for B2 the value was 113 nM.

The target is the same in the next experiment. Briefly: cell-based or functional assay.
As for B1, the “FAPα Enzyme Inhibition IC50” value was determined as 5760 nM.
ACTDCDTDSLIYCA (linker 2-5-13 via TBMB, all L-amino acids) [A-(SEQ ID NO: 2)-A]: the “FAPα Enzyme Inhibition IC50” value is > 50000 nM.
Same read-out and setting: for ACDDCLISMRDACA (linker 2-5-13 via TBMB, all L-amino acids) [A-(SEQ ID NO: 4)-A] the value was 16700 nM; for B2, 1330 nM.
